How the values were obtained:
Test in all cases: cell_activity
[1] = tested on: hyperactive piggyBac transposase (HAhyPBase); conditions: excision in HeLa (step 1 and step 3 both 17%); 46% in hiPS cells (Table 17)
[2] = tested on: Sleeping Beauty transposase SB100X; conditions: excision in HeLa, 3 of 21 clones
[3] = tested on: gp3-phiC31 integrase fusion (Streptomyces phage phiC31?); conditions: HeLa CI.24.22.21.3, attL x attR recombination, 13 of 27 clones
[4] = tested on: phiC31 integrase (Streptomyces phage phiC31?); conditions: HeLa CI.24.22, 4 of 24 clones positive

For piggyBac ITRs flanking puro-delta-tk, the activity [1] was 17%.

Work on “Sleeping Beauty ITRs flanking puro-delta-tk” yielded an activity [2] of 14%.

Substance phiC31 attL (genomic) x attR (pEP50) has an activity [3] of 48%.

phiC31 attB (pEP24) x attP (pEP28) showed an activity [4] of 16%.

— patent publication US20220025406
